What was measured:
ISY1 = molecular target: T1, ISY1 (human, UniProt Q9ULR0 1-285); test: EMSA
T1 sequence: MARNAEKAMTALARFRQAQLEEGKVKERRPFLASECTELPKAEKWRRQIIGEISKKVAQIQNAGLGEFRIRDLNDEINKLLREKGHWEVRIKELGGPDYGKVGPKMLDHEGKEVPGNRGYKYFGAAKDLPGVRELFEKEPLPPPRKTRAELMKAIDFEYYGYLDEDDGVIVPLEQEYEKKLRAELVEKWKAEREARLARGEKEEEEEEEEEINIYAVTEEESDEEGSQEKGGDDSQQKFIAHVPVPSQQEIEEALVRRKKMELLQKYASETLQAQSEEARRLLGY

[1] = molecular target: APE1 (apurinic/apyrimidinic endonuclease 1) (human, UniProt P27695 1-318); test: EMSA
APE1 (apurinic/apyrimidinic endonuclease 1), sequence (P27695 whole entry): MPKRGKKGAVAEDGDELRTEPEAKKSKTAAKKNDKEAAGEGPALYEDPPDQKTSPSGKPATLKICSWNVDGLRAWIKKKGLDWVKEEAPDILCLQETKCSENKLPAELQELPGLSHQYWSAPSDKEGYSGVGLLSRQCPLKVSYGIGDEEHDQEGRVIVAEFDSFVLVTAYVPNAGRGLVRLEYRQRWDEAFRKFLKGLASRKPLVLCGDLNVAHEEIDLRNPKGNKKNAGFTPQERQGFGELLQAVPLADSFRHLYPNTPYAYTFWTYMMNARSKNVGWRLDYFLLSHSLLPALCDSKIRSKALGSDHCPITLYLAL

B1: 37-mer control DNA duplex (no AP site) (dsDNA)
DNA 1: CCTGCAGCTGGTGCAAAAGTATTGCGGCGTGTACGGT
DNA 2: ACCGTACACGTTTCCTTACGGGGTCACCAGCTGCAGG
B1: no binding (ISY1); no binding [1].
